{
  "source": "patent US7074589",
  "key": {"[1]": {"target": "T1, SRp20 (UniProt P84104)", "T1 sequence": "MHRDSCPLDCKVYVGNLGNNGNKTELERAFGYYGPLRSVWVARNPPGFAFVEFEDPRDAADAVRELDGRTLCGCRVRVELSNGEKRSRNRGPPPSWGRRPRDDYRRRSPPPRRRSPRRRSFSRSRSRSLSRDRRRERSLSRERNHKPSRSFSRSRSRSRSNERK"}, "[2]": {"target": "SRp30a (UniProt Q6PDM2)", "sequence (Q6PDM2 2-248)": "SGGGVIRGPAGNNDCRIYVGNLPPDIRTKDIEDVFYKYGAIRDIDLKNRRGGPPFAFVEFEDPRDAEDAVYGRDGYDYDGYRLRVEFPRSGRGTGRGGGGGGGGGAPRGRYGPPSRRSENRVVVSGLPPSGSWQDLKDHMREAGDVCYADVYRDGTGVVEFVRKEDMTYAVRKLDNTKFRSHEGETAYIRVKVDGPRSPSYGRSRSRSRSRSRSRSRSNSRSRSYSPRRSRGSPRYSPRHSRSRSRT"}, "[3]": {"target": "SRp30b (UniProt Q62093)", "sequence (Q62093 2-221)": "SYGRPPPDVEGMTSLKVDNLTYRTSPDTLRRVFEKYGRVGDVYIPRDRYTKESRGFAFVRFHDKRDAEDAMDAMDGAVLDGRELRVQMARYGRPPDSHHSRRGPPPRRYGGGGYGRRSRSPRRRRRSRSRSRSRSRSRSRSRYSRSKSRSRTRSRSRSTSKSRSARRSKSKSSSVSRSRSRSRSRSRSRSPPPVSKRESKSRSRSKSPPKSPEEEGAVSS"}, "[4]": {"target": "T2, SRp40 (UniProt O35326)", "T2 sequence": "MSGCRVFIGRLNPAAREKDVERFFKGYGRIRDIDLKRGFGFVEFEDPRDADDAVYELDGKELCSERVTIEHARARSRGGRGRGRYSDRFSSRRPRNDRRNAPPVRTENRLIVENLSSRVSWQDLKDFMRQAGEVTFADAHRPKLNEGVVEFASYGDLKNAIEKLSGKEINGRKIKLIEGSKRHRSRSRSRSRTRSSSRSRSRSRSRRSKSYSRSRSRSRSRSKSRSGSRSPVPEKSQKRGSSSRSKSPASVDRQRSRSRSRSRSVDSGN"}, "[5]": {"target": "T3, SRp55 (UniProt Q3TWW8)", "T3 sequence": "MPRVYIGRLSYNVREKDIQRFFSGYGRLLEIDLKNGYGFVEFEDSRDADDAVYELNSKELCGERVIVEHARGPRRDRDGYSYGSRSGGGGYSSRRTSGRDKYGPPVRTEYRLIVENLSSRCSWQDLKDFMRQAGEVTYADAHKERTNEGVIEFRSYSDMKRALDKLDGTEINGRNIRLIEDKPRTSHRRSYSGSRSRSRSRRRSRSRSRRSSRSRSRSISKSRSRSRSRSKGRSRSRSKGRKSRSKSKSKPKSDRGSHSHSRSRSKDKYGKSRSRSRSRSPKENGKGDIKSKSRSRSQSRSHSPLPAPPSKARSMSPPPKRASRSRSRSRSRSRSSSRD"}},
  "data": [
    {"substance": "GST-mCLK2 fusion protein", "values": [
      {"measurement": "phosphorylation of SR proteins, in vitro kinase assay with gamma-32P-ATP", "setting": "[1]", "result": "All mCLK kinases were able to phosphorylate SRp2O, SRp3Oa and to a lesser extent SRp4O and SRp55"},
      {"measurement": "phosphorylation of SR proteins, in vitro kinase assay with gamma-32P-ATP", "setting": "[2]", "result": "All mCLK kinases were able to phosphorylate SRp2O, SRp3Oa and to a lesser extent SRp4O and SRp55"},
      {"measurement": "phosphorylation of SR proteins, in vitro kinase assay with gamma-32P-ATP", "setting": "[3]", "result": "mCLK2 and mCLK3 phosphorylated both with almost equal efficiency"},
      {"measurement": "phosphorylation of SR proteins, in vitro kinase assay with gamma-32P-ATP", "setting": "[4]", "result": "All mCLK kinases were able to phosphorylate SRp2O, SRp3Oa and to a lesser extent SRp4O and SRp55"},
      {"measurement": "phosphorylation of SR proteins, in vitro kinase assay with gamma-32P-ATP", "setting": "[5]", "result": "All mCLK kinases were able to phosphorylate SRp2O, SRp3Oa and to a lesser extent SRp4O and SRp55"}
    ]},
    {"substance": "GST-mCLK3 fusion protein", "values": [
      {"measurement": "phosphorylation of SR proteins, in vitro kinase assay with gamma-32P-ATP", "setting": "[1]", "result": "All mCLK kinases were able to phosphorylate SRp2O, SRp3Oa and to a lesser extent SRp4O and SRp55"},
      {"measurement": "phosphorylation of SR proteins, in vitro kinase assay with gamma-32P-ATP", "setting": "[2]", "result": "All mCLK kinases were able to phosphorylate SRp2O, SRp3Oa and to a lesser extent SRp4O and SRp55"},
      {"measurement": "phosphorylation of SR proteins, in vitro kinase assay with gamma-32P-ATP", "setting": "[3]", "result": "mCLK2 and mCLK3 phosphorylated both with almost equal efficiency"},
      {"measurement": "phosphorylation of SR proteins, in vitro kinase assay with gamma-32P-ATP", "setting": "[4]", "result": "All mCLK kinases were able to phosphorylate SRp2O, SRp3Oa and to a lesser extent SRp4O and SRp55"},
      {"measurement": "phosphorylation of SR proteins, in vitro kinase assay with gamma-32P-ATP", "setting": "[5]", "result": "All mCLK kinases were able to phosphorylate SRp2O, SRp3Oa and to a lesser extent SRp4O and SRp55"}
    ]},
    {"substance": "GST-mCLK4 fusion protein", "values": [
      {"measurement": "phosphorylation of SR proteins, in vitro kinase assay with gamma-32P-ATP", "setting": "[1]", "result": "All mCLK kinases were able to phosphorylate SRp2O, SRp3Oa and to a lesser extent SRp4O and SRp55"},
      {"measurement": "phosphorylation of SR proteins, in vitro kinase assay with gamma-32P-ATP", "setting": "[2]", "result": "All mCLK kinases were able to phosphorylate SRp2O, SRp3Oa and to a lesser extent SRp4O and SRp55"},
      {"measurement": "phosphorylation of SR proteins, in vitro kinase assay with gamma-32P-ATP", "setting": "[3]", "result": "mCLK1 and mCLK4 phosphorylated SRp3Oa (upper band) more strongly than SRp3Ob"},
      {"measurement": "phosphorylation of SR proteins, in vitro kinase assay with gamma-32P-ATP", "setting": "[4]", "result": "All mCLK kinases were able to phosphorylate SRp2O, SRp3Oa and to a lesser extent SRp4O and SRp55"},
      {"measurement": "phosphorylation of SR proteins, in vitro kinase assay with gamma-32P-ATP", "setting": "[5]", "result": "All mCLK kinases were able to phosphorylate SRp2O, SRp3Oa and to a lesser extent SRp4O and SRp55"}
    ]}
  ]
}
